Experimental data as given in the DeepSol protein solubility set.

assay: soluble on expression in E. coli; label from the status in PepcDB or PDB records

| Sequence | soluble on expression in E. coli |
| --- | --- |
| MGSDKIHHHHHHLGDHTLNQVTDTPLSQQHITQHTQVAPSRLAAAGLSASIMLLKRILKPFEHVQRHRHSWGQVIYASQGVLSVITPAGRYIVPPEQAVWVPPFVDHEVIALSQVQLSSLYLDDTQIGGFPPCCTCLNVKPVLQLLLQEVNAFMKSEAGLIDPDFKDSVMRLLMVIRDFMVLAPKVALDLPYPKDKKLLRITEALLADPSEQRTLVDWQREVGASARTLARLFKQQTGLSYSQWLQRLRLQVAIQMLSRGESVLTTALSLGYASGSAFGYMFRQLMGVAPSQYLLAQSTLPKVQCQK | not soluble |
| MSLKSDKDHSVNINARGSFNDRADEISDAEQYGNRLSLAYQGKFLEDTLGVAVGYAHLYQPYVASQFIGLRFNDANEDVNGDGVKEAISEGFELQQKGGDDTRDGYMAAIHWQPTDNFSVKGDLFHSKFTSENFARGFRVKSLKNGTISDAVVESGSMTGGTVSTDGTDNFAVFVVNDNDSKYSELTSGSFNVEWNNGGALTVAADVSYSKADGEFVNGGTRAVLYDDIGNEVRSAESVTYKLNGLSPADISFANDYTNTATLGLKEVGMWPYNQQNDLVAYKLDFNYALDMGFVSSVDFGVRYAEREFNAQRSQAGYGFEYGKNPSNQPVLALNGDMAKVVDFGGELSGYPSFLAIDFNKAIELVNAQLAATGQSPFTPTANWSNNWTMIQSGAVNEDVLAGYVQANLDFDIGDIKVTGNLGVRVVNTDQSSTGLQQVGYGLGEAITDELGVVSKDYIRNEVGKTYTDYLPSLNLTFHLTENDQLRFAAASVMSRPPINKLKSGMGSWYDDSATPGYKKYNAWGNTSPLLDPFYADQYDLSYEHFFEESEGAVVVALFYKDIKSFINDFTIQPFDFEANGFIVPDTIIDNGVEFPVIKNEGQYQTAINNDKGGYIRGIELGYTQIFDFLPSPLDGLGFTGSYSYSDSEVELTTDLSGSNLIMPLPGEGHHHHHH | not soluble |
| MENEKIWIKELKEKRLAYGVSQNKLAVASHITRPYLSDIETGKAVPTQQVKEDLLNALERFNPDNPLEMLFDYVRIRFPTNDVAQIIGEVLRLNMDYMLHEDFGYYSYPEHYRFGDIVVLVSHDVSKGVLLELKGKGCRQFENFLLAQHRSWYDFFQDCMEHKGIFKRLDLAINDKTGILNIPDLAKKCKQEECISVFRSFKNYRSGELVHRDEKPYMGNTLYIGSLKSEVYFCIYEKDYEQYVKNDVPLEDAEVKNRFEIRLKNDRATQAMKDLLAHQQAEKTAFEIINRYIRFADKDDTKRRSDWKTNERWEWFIGKNRGALRLTTQPEPYSFERTLNWLHHQVAPTLKIASILDVLNGTTIISTMIQEAKLTEKHEKLIEQQHLAMEDLIT | not soluble |
| SPVYGVKAVPVERIRANSYNPNVTAPPEMRLLELSIWEDGYTMPCVCYYIEKEDVYELVDGYHRYKVMMTSPRIYKRENGLLPVTVIRKDLAERMASTIRHNRARGMHK | soluble |
| MDTMSQILKLLEKTDSIEINEFRMDVDELELTIMPTLQNVVQKVVEKQIEAKKEFESQIEFKYPVKDYAGKVNEVKLGGKNRKTVKLGGQTSLYRFEEPQPNAPTVTFDVFDIPMNGLPRPIKENFEDVMHSPGEWAQKAVKEFGADMITLHLIGTDPKVKDKSLKDAAKDLEEVLQAVKVPLVIGGSGNPKKDPLVLEMAAEVADGERCLLASANLDLDYQKIAQAAVKHDHAVLSWAISDINMQKVLNKALMKEGLTANDIVMDPTTCALGYGIEFSIDVMTRTRLSALKGDEILQMPMSSGTTNAWGSREAWMKKDEWGPTKYRGPIWEVVTGLTMMLCGVDIFMMLHPLSVKTLKEIGTTLTYEYKSKESQDISDWINKF | not soluble |
| MILEKAREILEEHQLCNHCLGRLFGKLGKGTNEERGRAIRLLLSMETGKEYKEPEKCELCGGVFNNLDKFAELCIKAAEGIEFETFWVGSRFPEEIEKKEEEIWRKFRVVSGEKITKEFNRELGKVIAVRYGKTPVKERPDVVFIVEPFSEKVELQVNPIYVAGRYRKLIRGIPQTPAPGFKESIATIICRAFKKHFHGKCIFKGAGREDVDVRMLGNGRPFVVEIKRPRKRKVNLKDIEEEINQSGKVEVLNLRFITPEEAERILTTRHRKVYEAIVYVKDGITKEEVEKVVKSLKNAEIKQRTPRRVLNSRADLVRVRKVYDVKGELIDDKHFKLRLVTDGGLYIKELISGDRGRTTPSVSEILGKEAWCEILDVLEVLDDVEGDNLEHHHHHH | not soluble |
| GPGSMSDWETIAKESEKVLVKPDIKGCHEILMKAYEGGNHHPEILWRLGRSYYEMANESTDPAVREPYLKEGMELCKKSVEADPHNFASHKWLGILISDQKVGNKEKIANAYIIRDHFLKAVELNPNDATSLHCMGNWCFKILQIGWLERKAAALILGEPPSSTYEECLGYLLRSAEAGNTIHNSTMIGDVYAQQSMHDEARKWYQKAIDMPAYTELQKRNHDAAVAKIKKL | soluble |
| MTEKTTVKTLKDVVVRFCGDSGDGMQLTGTIFSDLSAVFGNTISTFPDYPAEIRAPQGTLGGVSGFQVHIGTDLVRTPGDLADVLVAMNPAALKVNRTHVRRDSIIIIDSDSFMASDLEKAEIASEDFMTELGLTTQELFTVPISSMVKKSTAEFGLDVKAALRCKNMFALGLVCWLFDRPTQHAIDYLNRKFGKKEAILNANIKALADGFNYGHNTHATATTYRIEGRKQTPGVYMDISGNKATAYGLVAAAEHANLNLFLGSYPITPATDILHELAKLKSLGVKTVQAEDEIAGICTAIGVSFAGDLAVTTTSGPGLALKSEALGLTVMAELPLVLVDVQRGGPSTGLPTKSEQTDLLQALFGRNGESPIPVIAATTPSDCFDSAFWACKIALEHMTPVILLTDAFIANGSSAWRIPDPQSYPDIRPPYVDQYKGEAKWRPYFRNEETHVRYWAIPGQEGFQHRLGGLEKDYVTGAISTNPENHAKMVATREAKVQAIAQDIPDLEVHGDKDDAELLIIGWGGTYGHLYETMERMRNAGKKVALAHFRFINPLPKNTAEVLQRYPKAVVAEQNLGQFALYLRGEVPGFHPLQFNRVTGQPLVMSEMVEVFTQMMEEK | not soluble |
| MGSDKIHHHHHHMDVVDELIKLHEEHVSGLLRLCGQAGWPDYGEQELKLLVQQGRFFGYQNVSGDIISCIGLFLFGRLTSIGLVIVDKEYQRLGLGRRMVNACITQTDENTAIRLCATKEGLPLYEKAGFHTAGSVRKYSCHSFQPYTKKLDAELTSFREQDFHDLTAADLAAFGGDRSNLLQQLISASCECIIARNQDGQLIGYGLSVQTPANLKFGPIIAPSSDVAAQIITRLAAGKQGPMRIDIPSEHTSLHDSLIEMGFHKDDEPPILFYQKKAPIQNGHLYALISQALG | not soluble |
| HHHHHHSVFEDDLPFLEFTGSIVYSYDASDCSFLSEDISMSLSDGDVVGFDMEWPPLYNRGKLGKVALIQLCVSESKCYLFHVSSMSVFPQGLKMLLENKAVKKAGVGIEGDQWKLLRDFDIKLKNFVELTDVANKKLKCTETWSLNSLVKHLLGKQLLKDKSIRCSNWSKFPLTEDQKLYAATDAYAGFIIYRNLEILDDTVQR | soluble |
| GPGSMCKLHVKRTAAHSSCAVTKDNFNAIGYGARLVFKICNIADCIVRNGESNRVLSVSSTIMSMSVIHGGITIQTIPVHCVFNYELCNPLRMAHVDRQKCAPGYVVSDPLPEINEYSDADVVIKNLLSAHSLHDAHEKNAFTALVRAMISDRDMQKLGGNTEADQYALIGVFLILYGPGSIKIANQENELVPKKHVDYCGKKQIMNLTRKNHDT | not soluble |
| MNYGNNGGGQWQPRGNNNWRPQGRGRGGGGWKGNDNRGGYRGGSSNDGGWSNFRDDGNLNFASPYQANRGNFRGNYRGGGGGGGGNQNNYGNRGRGRGGFDRGRGGGGGGNKNFGPIDANKCIIPSMWNNPWDALEKEYEQEYGVAITEKVTDPSPSPSSAEETTA | not soluble |
| MFCSSNIPIRLRDKKENNSIIVLPGGSEKSAAGQWRPHLPT | not soluble |
| MENSDDIRLIVKIAQLYYEQDMTQAQIARELGIYRTTISRLLKRGREQGIVTIAINYDYNENLWLEQQLKQKFGLKEAVVASSDGLLEEEQLSAMGQHGALLVDRLLEPGDIIGFSWGRAVRSLVENLPQRSQSRQVICVPIIGGPSGKLESRYHVNTLTYGAAARLKAESHLADFPALLDNPLIRNGIMQSQHFKTISSYWDSLDVALVGIGSPAIRDGANWHAFYGSEESDDLNARHVAGDICSRFYDINGGLVDTNMSEKTLSIEMAKLRQARYSIGIAMGEEKYSGILGALHGRYINCLVTNRETAELLLK | soluble |
| MRRNKRERQELLQQTIQATPFITDEELAGKFGVSIQTIRLDRLELSIPELRERIKNVAEKTLEDEVKSLSLDEVIGEIIDLELDDQAISILEIKQEHVFSRNQIARGHHLFAQANSLAVAVIDDELALTASADIRFTRQVKQGERVVAKAKVTAVEKEKGRTVVEVNSYVGEEIVFSGRFDMYRSKHSLEHHHHHH | soluble |
| SLNEVQQAVDMQRRQLLQRLGKDFDPSMLDDKLLKEAALKGLIERTLLLQAAKDDKFAFSDQALDQLILQTPEFQVDGKFNADRFDQVIRQMNYSRMQFRQMLGQEMLIGQLRAGLAGTGFVTDNELQSFARLEKQTRDFATLAIKADASKSSVSDDEVKAFYEGHKSEFMTPEQVVVEYVELKKSSFFDQVKVKQEDLEALYQKEIANLSEQRDAAHILIEVNDKVGDEQAKAKIDEIKARLAKGEDFAALAKEFSQDIGSAATGGDLGYAGRGVYDPAFEEALYALKQGEVSAPVKTPYGYHLIKLLGVQAPEVPSLESLKPKLEDELKKQMVEQRFVEATKDLESSAYEAADLSQPAQEMGLKVQTSQPFGRSGGDGIAANRQIVQTAFSAEVLEEAANSGAIELDPDTVVVLRVKEHNKPKEQPLEQVAANIRERLAAEKAAEEAQKRGEALIAELREGRTSSAAGESWKVVEAASRGHEGVDPKLLQAVFRMQRPEAKDKPSFSGVTLANGDYVVIRLNGVSEPEEAISDDEKAMYRRFLASRSGQADFAAFRRQLQD | not soluble |
| MSEQDATLDEFVEEGESESTDSANIDPNTLDQEQFGPFTLSTPGEWTAKRLGDIKQLITRGKQPTYDDDGVPVINQECIYWDGWHFENLRYLEEDVAEGWKEKYFPESGDVIVNSTGQGTLGRAQVYPGDQRRAIDSHVTLLRTDEQLCPHFHRYFFESHLGQALLYSMCVNGSTGQIELSKTRLDLLPTPLPPLEEQRKIASVLYNVDQAIQKTEAVIEKIERLKQGLLDDLFTKGLSESNSLRPSPEDHPGLYKKERRQTIPSEWNVESLQNLCVENITYGIVQPGPHVEDGVPYINTEDMTDGDIPTEGLSRTSPEIAEKYSRSQIHAEELVVTIRATIGAVDQVPPELEGANLTRGTARVVPGDKVDNTFLLWAIRSNNFQSELDARVKGTTFDEINLDQLGKIPVPHPDIDEQDRIVDELSTIEERMENEESYLEQLKRLKQGLMQDLLSGEVRTTDVDIPVLDAVAQHG | soluble |
| AMKNYYSSNPTFYLGIDCIIFGFNEGEISLLLLKRNFEPAMGEWSLMGGFVQKDESVDDAAKRVLAELTGLENVYMEQVGAFGAIDRDPGERVVSIAYYALININEYDRELVQKHNAYWVNINELPALIFDHPEMVDKAREMMKQKASVEPIGFNLLPKLFTLSQLQSLYEAIYGEPMDKRNFRKRVAEMDFIEKTDKIDKLGSKRGAALYKFNGKAYRKDPKFKL | soluble |
| MDPRQFEHTVVADNDIHSIVMSYLLHNCFNETADSLASSTGVKQPAIDRDNMERRKQIIHFILERKALKAFELTEQLAQDLLEKNKDLQFDLLCLHFVELICAGNCTEALKFGKTRLAPFGKVKKYVEKLEDVMALLAYEDPEKSPMFHLLSSEYRQQVADNLNRTILEHTNHPSYTPMERIIQQVTVVRQYLTEENGKDAFPPFSLKDSLKG | soluble |
| MNYHVYHSIDVVNGPGTRCTLFVSGCEHNCKGCYNKSTLNPNSGHLFTKELEDKIIADLNDTRIPRRGLSLSGGDPLHPMNCESVLKLVKRVKSECENKDIWMWTGYTLSELNPTQKEIVDLIDTLIDGRFEQDKADPSLDWRGSSNQIIHTFNVLLEHHHHHH | not soluble |
